The text below walks through data of patent publication US20170119877A1.

In this experiment the target is murine VISTA (V-domain Ig suppressor of T cell activation) on spleen cells / Ly6C+CD11b+ MDSCs of B6 mice (mouse) (UniProt Q9D659). In words: cell-based or functional assay.
Sequence of UniProt Q9D659 (Q9D659 33-308): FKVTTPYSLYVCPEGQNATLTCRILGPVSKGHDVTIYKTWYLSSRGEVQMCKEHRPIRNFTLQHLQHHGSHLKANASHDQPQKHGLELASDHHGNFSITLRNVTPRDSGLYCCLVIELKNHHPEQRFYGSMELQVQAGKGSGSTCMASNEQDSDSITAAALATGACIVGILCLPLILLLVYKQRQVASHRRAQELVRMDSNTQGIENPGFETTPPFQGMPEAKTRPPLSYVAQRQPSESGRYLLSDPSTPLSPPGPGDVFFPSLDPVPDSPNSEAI

With anti-VISTA mAb (13F3) (antibody), the blocking of MDSC suppression of B-cell responsiveness (3H-thymidine incorporation, α-CD40 + IL-4 stimulation) was found to be 50%; the blocking of MDSC suppression of B-cell responsiveness, corrected for control HIg is 55%; the blocking of MDSC suppression of B-cell responsiveness, over several independent experiments is 65%.
